In patent publication US20190352356A1:
Numbering of substitutions follows the chain as printed. In names and notes the source's numbering stands. Bridges are numbered along the chain shown (N, C = ends). Where no end group is shown, it is not given here.

B1: exemplary mutant-hIAPP polypeptide mutant analog 4 (N22K, S28P, N31K as SEQ ID NO: 22 is printed) (peptide)
peptide: KCNTATCATQRLANFLVHSSNKFGAILPSTKVGSNTY-NH2
modifications: disulfide 2-7; not fully specified; printed as KCNTATCATQRLANFLVHSSNKFGAILPSTKVGSNTY-NH2
B2: exemplary mutant-hIAPP polypeptide mutant analog 1 (N22K, G24P, I26P, N31K) (peptide)
peptide: KCNTATCATQRLANFLVHSSNKFPAPLSSTKVGSNTY
HELM: PEPTIDE1{K.C.N.T.A.T.C.A.T.Q.R.L.A.N.F.L.V.H.S.S.N.K.F.P.A.P.L.S.S.T.K.V.G.S.N.T.Y.[am]}$PEPTIDE1,PEPTIDE1,2:R3-7:R3$$$V2.0; N-terminus assumed
SMILES: CC(C)C[C@H](NC(=O)[C@H](CCCNC(=N)N)NC(=O)[C@H](CCC(N)=O)NC(=O)[C@@H](NC(=O)[C@H](C)NC(=O)[C@@H]1CSSC[C@H](NC(=O)[C@@H](N)CCCCN)C(=O)N[C@@H](CC(N)=O)C(=O)N[C@@H]([C@@H](C)O)C(=O)N[C@@H](C)C(=O)N[C@@H]([C@@H](C)O)C(=O)N1)[C@@H](C)O)C(=O)N[C@@H](C)C(=O)N[C@@H](CC(N)=O)C(=O)N[C@@H](Cc1ccccc1)C(=O)N[C@@H](CC(C)C)C(=O)N[C@H](C(=O)N[C@@H](Cc1c[nH]cn1)C(=O)N[C@@H](CO)C(=O)N[C@@H](CO)C(=O)N[C@@H](CC(N)=O)C(=O)N[C@@H](CCCCN)C(=O)N[C@@H](Cc1ccccc1)C(=O)N1CCC[C@H]1C(=O)N[C@@H](C)C(=O)N1CCC[C@H]1C(=O)N[C@@H](CC(C)C)C(=O)N[C@@H](CO)C(=O)N[C@@H](CO)C(=O)N[C@H](C(=O)N[C@@H](CCCCN)C(=O)N[C@H](C(=O)NCC(=O)N[C@@H](CO)C(=O)N[C@@H](CC(N)=O)C(=O)N[C@H](C(=O)N[C@@H](Cc1ccc(O)cc1)C(N)=O)[C@@H](C)O)C(C)C)[C@@H](C)O)C(C)C
B3: exemplary mutant-hIAPP polypeptide mutant analog 2 (N21K, G24P, I26P, N35K) (peptide)
peptide: B2 peptide with N21K, K22N, K31N, N35K
HELM: PEPTIDE1{K.C.N.T.A.T.C.A.T.Q.R.L.A.N.F.L.V.H.S.S.K.N.F.P.A.P.L.S.S.T.N.V.G.S.K.T.Y.[am]}$PEPTIDE1,PEPTIDE1,2:R3-7:R3$$$V2.0; N-terminus assumed
SMILES: CC(C)C[C@H](NC(=O)[C@H](CCCNC(=N)N)NC(=O)[C@H](CCC(N)=O)NC(=O)[C@@H](NC(=O)[C@H](C)NC(=O)[C@@H]1CSSC[C@H](NC(=O)[C@@H](N)CCCCN)C(=O)N[C@@H](CC(N)=O)C(=O)N[C@@H]([C@@H](C)O)C(=O)N[C@@H](C)C(=O)N[C@@H]([C@@H](C)O)C(=O)N1)[C@@H](C)O)C(=O)N[C@@H](C)C(=O)N[C@@H](CC(N)=O)C(=O)N[C@@H](Cc1ccccc1)C(=O)N[C@@H](CC(C)C)C(=O)N[C@H](C(=O)N[C@@H](Cc1c[nH]cn1)C(=O)N[C@@H](CO)C(=O)N[C@@H](CO)C(=O)N[C@@H](CCCCN)C(=O)N[C@@H](CC(N)=O)C(=O)N[C@@H](Cc1ccccc1)C(=O)N1CCC[C@H]1C(=O)N[C@@H](C)C(=O)N1CCC[C@H]1C(=O)N[C@@H](CC(C)C)C(=O)N[C@@H](CO)C(=O)N[C@@H](CO)C(=O)N[C@H](C(=O)N[C@@H](CC(N)=O)C(=O)N[C@H](C(=O)NCC(=O)N[C@@H](CO)C(=O)N[C@@H](CCCCN)C(=O)N[C@H](C(=O)N[C@@H](Cc1ccc(O)cc1)C(N)=O)[C@@H](C)O)C(C)C)[C@@H](C)O)C(C)C
B4: exemplary mutant-hIAPP polypeptide mutant analog 3 (N21K, N35K) (peptide)
peptide: KCNTATCATQRLANFLVHSSKNFGAILSSTNVGSKTY
HELM: PEPTIDE1{K.C.N.T.A.T.C.A.T.Q.R.L.A.N.F.L.V.H.S.S.K.N.F.G.A.I.L.S.S.T.N.V.G.S.K.T.Y.[am]}$PEPTIDE1,PEPTIDE1,2:R3-7:R3$$$V2.0; N-terminus assumed
SMILES: CC[C@H](C)[C@H](NC(=O)[C@H](C)NC(=O)CNC(=O)[C@H](Cc1ccccc1)NC(=O)[C@H](CC(N)=O)NC(=O)[C@H](CCCCN)NC(=O)[C@H](CO)NC(=O)[C@H](CO)NC(=O)[C@H](Cc1c[nH]cn1)NC(=O)[C@@H](NC(=O)[C@H](CC(C)C)NC(=O)[C@H](Cc1ccccc1)NC(=O)[C@H](CC(N)=O)NC(=O)[C@H](C)NC(=O)[C@H](CC(C)C)NC(=O)[C@H](CCCNC(=N)N)NC(=O)[C@H](CCC(N)=O)NC(=O)[C@@H](NC(=O)[C@H](C)NC(=O)[C@@H]1CSSC[C@H](NC(=O)[C@@H](N)CCCCN)C(=O)N[C@@H](CC(N)=O)C(=O)N[C@@H]([C@@H](C)O)C(=O)N[C@@H](C)C(=O)N[C@@H]([C@@H](C)O)C(=O)N1)[C@@H](C)O)C(C)C)C(=O)N[C@@H](CC(C)C)C(=O)N[C@@H](CO)C(=O)N[C@@H](CO)C(=O)N[C@H](C(=O)N[C@@H](CC(N)=O)C(=O)N[C@H](C(=O)NCC(=O)N[C@@H](CO)C(=O)N[C@@H](CCCCN)C(=O)N[C@H](C(=O)N[C@@H](Cc1ccc(O)cc1)C(N)=O)[C@@H](C)O)C(C)C)[C@@H](C)O

What follows are binders tested against human amylin receptor (hAMY1(a)) (human) (UniProt P30988) (assay: cell-based or functional assay).
Sequence of human amylin receptor (hAMY1(a)) (human) (P30988 25-474, chain 1 of 2): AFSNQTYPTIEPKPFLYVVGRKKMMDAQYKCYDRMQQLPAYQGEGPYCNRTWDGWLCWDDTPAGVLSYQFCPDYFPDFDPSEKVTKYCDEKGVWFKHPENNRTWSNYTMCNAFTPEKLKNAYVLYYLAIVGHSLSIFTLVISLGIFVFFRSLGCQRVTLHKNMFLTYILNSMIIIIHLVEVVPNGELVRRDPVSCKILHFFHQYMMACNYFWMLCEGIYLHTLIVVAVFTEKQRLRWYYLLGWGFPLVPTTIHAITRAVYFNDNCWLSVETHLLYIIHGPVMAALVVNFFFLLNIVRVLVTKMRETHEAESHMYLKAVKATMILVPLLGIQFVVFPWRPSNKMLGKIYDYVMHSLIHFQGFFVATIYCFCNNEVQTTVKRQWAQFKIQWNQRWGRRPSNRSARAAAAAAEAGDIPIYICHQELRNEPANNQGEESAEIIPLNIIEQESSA
Sequence of human amylin receptor (hAMY1(a)) (human) (O60894 27-148, chain 2 of 2, further chain): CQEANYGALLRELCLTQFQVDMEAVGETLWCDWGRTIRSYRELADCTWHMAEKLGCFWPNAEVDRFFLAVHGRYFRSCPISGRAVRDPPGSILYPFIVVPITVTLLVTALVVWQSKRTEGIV

For B1, which pEC50 of cAMP production (pEC50 (-log10(EC50))) is on record?
Its pEC50 of cAMP production (pEC50 (-log10(EC50))) is 9.43.

B2 was tested. Which pEC50 of cAMP production (pEC50 (-log10(EC50))) did it give?
The pEC50 of cAMP production (pEC50 (-log10(EC50))) was 8.47.

Which pEC50 of cAMP production (pEC50 (-log10(EC50))) does the source give for B3 here?
Its pEC50 of cAMP production (pEC50 (-log10(EC50))) is 8.75.

How did the pEC50 of cAMP production (pEC50 (-log10(EC50))) turn out when B4 was run?
The pEC50 of cAMP production (pEC50 (-log10(EC50))) was 9.13.

The binders below were run against human calcitonin receptor (hCT(a)) (human) (UniProt P30988) (assay: cell-based or functional assay).
Sequence of human calcitonin receptor (hCT(a)) (human) (P30988 25-474): as the sequence (P30988 25-474, chain 1 of 2) above

Which pEC50 of cAMP production (pEC50 (-log10(EC50))) does the source give for B1 here?
The pEC50 of cAMP production (pEC50 (-log10(EC50))) was 8.55.

With B2 as the binder, how does the pEC50 of cAMP production (pEC50 (-log10(EC50))) read?
Its pEC50 of cAMP production (pEC50 (-log10(EC50))) is 8.3.

Which pEC50 of cAMP production (pEC50 (-log10(EC50))) does the source give for B3 here?
The pEC50 of cAMP production (pEC50 (-log10(EC50))) was 7.97.

Which pEC50 of cAMP production (pEC50 (-log10(EC50))) does the source give for B4 here?
The pEC50 of cAMP production (pEC50 (-log10(EC50))) was 8.62.
